Results taken from paper PMC5586245, “2017 publication guidelines for structural modelling of small-angle scattering data from biomolecules in solution: an update” (Acta Crystallographica. Section D, Structural Biology, 2017).

Target: the molecule itself
Assay: SEC-SAXS; inline SEC (5 x 150 mm Superdex S200, 0.45 ml/min) with SAXS at the Australian Synchrotron SAXS/WAXS beamline, sheath-flow cell; 25 mM MOPS, 250 mM NaCl, 50 mM KCl, 2 mM TCEP, 0.1% NaN3 pH 7.5; 22 °C; mass from I(0), Porod volume and fit of crystal structures

B1: glucose isomerase (enzyme)
chain: not shown
notes: glucose isomerase (xylose isomerase), Streptomyces rubiginosus, UniProt P24300 residues 2-388; Tetramer; M from chemical composition 172912 Da for the tetramer; also called GI; GI (tetramer); source: bought: Hampton Research (HR7-100); stored in diluted form, repeated freeze-thaw cycles; no purification step before the SEC-SAXS column
stoichiometry N: 4
